The series deals with the molecule itself. Briefly: AUC; sedimentation velocity, 20 uM (0.25 mg/mL), 20 mM sodium phosphate pH 8.0, 200 mM NaCl, 20 C, 50,000 RPM; monomer and dimer.

The text below walks through data of PMC7697625 (Biomolecules, 2020).

A word on the stoichiometry N: it is a count of units in the complex or per binding partner.

B1: TNIP1 AHD1-UBAN construct (TNIP1^417-509) (domain or fragment, human, UniProt Q15025 417-509, looked up)
chain: QRLNKALEEALSIQTPPSSPPTAFGSPEGAGALLRKQELVTQNELLKQQVKIFEEDFQRERSDRERMNEEKEELKKQVEKLQAQVTLSNAQLK
notes: pET28a construct; For NMR the protein was 15N-labelled (minimal medium with 15NH4Cl); also called TNIP1 AHD1-UBAN region; AHD1-UBAN domain; source: E. coli BL-21(DE3) Rosetta 2, heat lysis, purified (HisTrap HP, Superdex 75); not shown: His6, C-terminal, kept
On to B1, for which the “stoichiometry N” value is 2.
